# Data from US20200199204A1.
# Assays:
# Test in all cases: cell-based or functional assay
# [1] = target: HIV-1 Env of QH0692.42 (HIV-1)
# [2] = target: HIV-1 Env of PVO.04 (HIV-1)
# [3] = target: HIV-1 Env of TRO.11 (HIV-1)
# [4] = target: HIV-1 Env of 6405.v4.c34 (HIV-1)
# [5] = target: HIV-1 Env of ZM53.12 (HIV-1)
# [6] = target: HIV-1 Env of ZM233.6 (HIV-1)
# [7] = target: HIV-1 Env of CNE3 (HIV-1)
# [8] = target: HIV-1 Env of Q259.d2.17 (HIV-1)
# [9] = target: HIV-1 Env of CAP210.E8 (HIV-1)
# [10] = target: HIV-1 Env of REJO.67 (HIV-1)
# [11] = target: HIV-1 Env of KER2008.12 (HIV-1)
# [12] = target: HIV-1 Env of THRO.18 (HIV-1)
# [13] = target: HIV-1 Env of DU422.01 (HIV-1)
# [14] = target: HIV-1 Env of 0260.v5.c36 (HIV-1)
# [15] = target: HIV-1 Env of TRJO.58 (HIV-1)
# [16] = target: HIV-1 Env of CAP256.SU (HIV-1)
# [17] = target: HIV-1 Env of 191821.E6.1 (HIV-1)
# [18] = target: HIV-1 Env of Q23.17 (HIV-1)
# [19] = target: HIV-1 Env of C1080.c3 (HIV-1)
# [20] = target: HIV-1 Env of CAP45.G3 (HIV-1)
# [21] = target: HIV-1 Env of RW020.2 (HIV-1)
# [22] = target: HIV-1 Env of DU156.12 (HIV-1)
# [23] = target: HIV-1 Env of CM244.ec1 (HIV-1)
# [24] = target: HIV-1 Env of RHPA.7 (HIV-1)
# [25] = target: HIV-1 Env of 3016.V5.c36 (HIV-1)
# [26] = target: HIV-1 Env of MB201 (HIV-1)
# [27] = target: HIV-1 Env of Q769.d22 (HIV-1)
# [28] = target: HIV-1 Env of Q168.a2 (HIV-1)
# [29] = target: HIV-1 Env of 6535.3 (HIV-1)
# [30] = target: HIV-1 Env of UG037.8 (HIV-1)
# [31] = target: HIV-1 Env of DU172.17 (HIV-1)
# [32] = target: HIV-1 Env of 96ZM651.02 (HIV-1)
# [33] = target: HIV-1 Env of SC422.8 (HIV-1)
# [34] = target: HIV-1 Env of WITO.33 (HIV-1)
# [35] = target: HIV-1 Env of KER2018.11 (HIV-1)
# [36] = target: HIV-1 Env of CAAN.A2 (HIV-1)
# [37] = target: HIV-1 Env of TH976.17 (HIV-1)
# [38] = target: HIV-1 Env of ZM135.10a (HIV-1)
# [39] = target: HIV-1 Env of Q842.d12 (HIV-1)
# [40] = target: HIV-1 Env of AC10.29 (HIV-1)
# [41] = target: HIV-1 Env of ZM249.1 (HIV-1)
# [42] = target: HIV-1 Env of CAP256.PI (HIV-1)
# [43] = target: HIV-1 Env of Q461.e2 (HIV-1)
# [44] = target: HIV-1 Env of ZM197.7 (HIV-1)
# [45] = target: HIV-1 Env of BG505.w6m (HIV-1)
# [46] = target: HIV-1 Env of MB539.2B7 (HIV-1)
# [47] = target: HIV-1 Env of ZM214.15 (HIV-1)
# [48] = target: HIV-1 Env of ZM109.4 (HIV-1)
# [49] = target: HIV-1 Env of CAP244.D3 (HIV-1)
# [50] = target: Env of SIVmac251.30 (SIV (SIVmac251))
substance,measurement,setting,value
CAP256-VRC26.22 (antibody),IC50,[1],> 50 µg/mL
same,IC50,[2],9.03 µg/mL
same,IC50,[3],> 50 µg/mL
same,IC50,[4],> 50 µg/mL
same,IC50,[5],0.002 µg/mL
same,IC50,[6],0.001 µg/mL
same,"IC50 (neutralization, TZM-bl)",[7],> 50 µg/mL
same,IC50,[8],0.005 µg/mL
same,IC50,[9],0.003 µg/mL
same,IC50,[10],> 50 µg/mL
same,IC50,[11],1.23 µg/mL
same,IC50,[12],> 50 µg/mL
same,IC50,[13],0.012 µg/mL
same,IC50,[14],> 50 µg/mL
same,IC50,[15],> 50 µg/mL
same,IC50,[16],0.002 µg/mL
same,IC50,[17],2.12 µg/mL
same,IC50,[18],0.006 µg/mL
same,IC50,[19],0.013 µg/mL
same,IC50,[20],1.4 µg/mL
same,IC50,[21],> 50 µg/mL
same,IC50,[22],0.15 µg/mL
same,IC50,[23],4.54 µg/mL
same,IC50,[24],> 50 µg/mL
same,IC50,[25],0.022 µg/mL
same,IC50,[26],> 50 µg/mL
same,IC50,[27],> 50 µg/mL
same,IC50,[28],0.007 µg/mL
same,IC50,[29],> 50 µg/mL
same,IC50,[30],> 50 µg/mL
same,IC50,[31],> 50 µg/mL
same,IC50,[32],> 50 µg/mL
same,IC50,[33],> 50 µg/mL
same,IC50,[34],> 50 µg/mL
same,IC50,[35],0.002 µg/mL
same,IC50,[36],> 50 µg/mL
same,"IC50 (neutralization, TZM-bl)",[37],> 50 µg/mL
same,IC50,[38],> 50 µg/mL
same,IC50,[39],0.63 µg/mL
same,IC50,[40],> 50 µg/mL
same,IC50,[41],0.13 µg/mL
same,IC50,[42],> 50 µg/mL
same,IC50,[43],4.1 µg/mL
same,IC50,[44],0.09 µg/mL
same,IC50,[45],0.035 µg/mL
same,IC50,[46],17.9 µg/mL
same,IC50,[47],> 50 µg/mL
same,IC50,[48],> 50 µg/mL
same,IC50,[49],> 50 µg/mL
CAP256-VRC26.23 (antibody),IC50,[1],> 50 µg/mL
same,IC50,[2],> 50 µg/mL
same,IC50,[3],> 50 µg/mL
same,IC50,[4],> 50 µg/mL
same,IC50,[5],0.028 µg/mL
same,IC50,[6],> 50 µg/mL
same,"IC50 (neutralization, TZM-bl)",[7],> 50 µg/mL
same,IC50,[8],> 50 µg/mL
same,IC50,[9],0.019 µg/mL
same,IC50,[10],> 50 µg/mL
same,IC50,[11],> 50 µg/mL
same,IC50,[12],> 50 µg/mL
same,IC50,[13],> 50 µg/mL
same,IC50,[14],> 50 µg/mL
same,IC50,[15],> 50 µg/mL
same,IC50,[16],0.019 µg/mL
same,IC50,[17],> 50 µg/mL
same,IC50,[18],> 50 µg/mL
same,IC50,[19],> 50 µg/mL
same,IC50,[20],> 50 µg/mL
same,IC50,[21],> 50 µg/mL
same,IC50,[22],> 50 µg/mL
same,IC50,[23],> 50 µg/mL
same,IC50,[24],> 50 µg/mL
same,IC50,[25],> 50 µg/mL
same,IC50,[26],> 50 µg/mL
same,IC50,[27],> 50 µg/mL
same,IC50,[28],> 50 µg/mL
same,IC50,[29],> 50 µg/mL
same,IC50,[30],> 50 µg/mL
same,IC50,[31],> 50 µg/mL
same,IC50,[32],> 50 µg/mL
same,IC50,[33],> 50 µg/mL
same,IC50,[34],> 50 µg/mL
same,IC50,[35],10 µg/mL
same,IC50,[36],> 50 µg/mL
same,"IC50 (neutralization, TZM-bl)",[37],> 50 µg/mL
same,IC50,[38],> 50 µg/mL
same,IC50,[39],> 50 µg/mL
same,IC50,[40],> 50 µg/mL
same,IC50,[41],> 50 µg/mL
same,IC50,[42],> 50 µg/mL
same,IC50,[43],> 50 µg/mL
same,IC50,[44],> 50 µg/mL
same,IC50,[45],> 50 µg/mL
same,IC50,[46],> 50 µg/mL
same,IC50,[47],> 50 µg/mL
same,IC50,[48],> 50 µg/mL
same,IC50,[49],> 50 µg/mL
CAP256-VRC26.24 (antibody),IC50,[1],> 50 µg/mL
same,IC50,[2],> 50 µg/mL
same,IC50,[3],> 50 µg/mL
same,IC50,[4],> 50 µg/mL
same,IC50,[5],0.047 µg/mL
same,IC50,[6],1.67 µg/mL
same,"IC50 (neutralization, TZM-bl)",[7],> 50 µg/mL
same,IC50,[8],31.1 µg/mL
same,IC50,[9],0.23 µg/mL
same,IC50,[10],> 50 µg/mL
same,"IC50 (neutralization, TZM-bl)",[50],> 50 µg/mL
same,IC50,[11],> 50 µg/mL
same,IC50,[12],> 50 µg/mL
same,IC50,[13],21.6 µg/mL
same,IC50,[14],> 50 µg/mL
same,IC50,[15],> 50 µg/mL
same,IC50,[16],0.04 µg/mL
same,IC50,[18],5.92 µg/mL
same,IC50,[19],17.4 µg/mL
same,IC50,[20],0.672 µg/mL
same,IC50,[21],> 50 µg/mL
same,IC50,[22],10.8 µg/mL
same,IC50,[23],> 50 µg/mL
same,IC50,[24],> 50 µg/mL
same,IC50,[25],2.12 µg/mL
same,IC50,[26],> 50 µg/mL
same,IC50,[27],> 50 µg/mL
same,IC50,[28],3.41 µg/mL
same,IC50,[29],> 50 µg/mL
same,IC50,[30],> 50 µg/mL
same,IC50,[31],> 50 µg/mL
same,IC50,[32],> 50 µg/mL
same,IC50,[33],> 50 µg/mL
same,IC50,[34],> 50 µg/mL
same,IC50,[35],1.1 µg/mL
same,IC50,[36],> 50 µg/mL
same,"IC50 (neutralization, TZM-bl)",[37],> 50 µg/mL
same,IC50,[38],> 50 µg/mL
same,IC50,[39],> 50 µg/mL
same,IC50,[40],> 50 µg/mL
same,IC50,[41],13.6 µg/mL
same,IC50,[42],> 50 µg/mL
same,IC50,[43],> 50 µg/mL
same,IC50,[44],12.6 µg/mL
same,IC50,[45],5.63 µg/mL
same,IC50,[46],> 50 µg/mL
same,IC50,[47],32 µg/mL
same,IC50,[48],16.5 µg/mL
same,IC50,[49],> 50 µg/mL
